Laboratory results taken from publication PMC2734569, “Functional mapping of the fission yeast DNA polymerase δ B-subunit Cdc1 by site-directed and random pentapeptide insertion mutagenesis” (BMC Molecular Biology, 2009).

What was measured:
Experiment in all cases: two-hybrid; LexA-Cdc1 bait (pBTM116 or pBTM116BN) with Gal4-Pol3 prey and co-expressed c-myc-tagged Cdc27 (pAA-Cdc27) in S. cerevisiae CTY10-5d; ONPG liquid culture beta-galactosidase assay, mean of triplicates, as percent of wild-type Cdc1
Conditions in all cases: partners not purified
Cdc1-J7 = biological target: T1, Cdc1-J7 (Schizosaccharomyces pombe, UniProt P87324 1-462, Met-GlyValProLeuMet-Glu)
T1 construct: Cdc1, S. pombe, with a pentapeptide inserted after residue 393; source: yeast two-hybrid fusion, in S. cerevisiae CTY10-5d
T1 sequence (looked up): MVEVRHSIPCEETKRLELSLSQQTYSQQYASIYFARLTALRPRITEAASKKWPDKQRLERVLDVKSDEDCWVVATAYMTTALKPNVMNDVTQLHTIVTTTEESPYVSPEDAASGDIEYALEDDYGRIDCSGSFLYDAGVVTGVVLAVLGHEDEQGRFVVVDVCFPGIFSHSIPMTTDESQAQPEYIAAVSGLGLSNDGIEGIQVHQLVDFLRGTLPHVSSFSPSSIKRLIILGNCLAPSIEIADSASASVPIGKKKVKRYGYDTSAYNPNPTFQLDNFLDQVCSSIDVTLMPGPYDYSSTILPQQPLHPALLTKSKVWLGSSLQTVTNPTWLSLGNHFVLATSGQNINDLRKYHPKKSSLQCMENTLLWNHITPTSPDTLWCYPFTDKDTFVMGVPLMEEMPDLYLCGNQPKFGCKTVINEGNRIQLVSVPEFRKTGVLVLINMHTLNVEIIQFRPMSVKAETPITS

Cdc1-J3 = biological target: T2, Cdc1-J3 (Schizosaccharomyces pombe, UniProt P87324 1-462, Leu-GlyValProLeuLeu-Asp)
T2 construct: Cdc1, S. pombe, with a pentapeptide inserted after residue 62; also called E3; E8; source: yeast two-hybrid fusion, in S. cerevisiae CTY10-5d
T2 sequence (looked up): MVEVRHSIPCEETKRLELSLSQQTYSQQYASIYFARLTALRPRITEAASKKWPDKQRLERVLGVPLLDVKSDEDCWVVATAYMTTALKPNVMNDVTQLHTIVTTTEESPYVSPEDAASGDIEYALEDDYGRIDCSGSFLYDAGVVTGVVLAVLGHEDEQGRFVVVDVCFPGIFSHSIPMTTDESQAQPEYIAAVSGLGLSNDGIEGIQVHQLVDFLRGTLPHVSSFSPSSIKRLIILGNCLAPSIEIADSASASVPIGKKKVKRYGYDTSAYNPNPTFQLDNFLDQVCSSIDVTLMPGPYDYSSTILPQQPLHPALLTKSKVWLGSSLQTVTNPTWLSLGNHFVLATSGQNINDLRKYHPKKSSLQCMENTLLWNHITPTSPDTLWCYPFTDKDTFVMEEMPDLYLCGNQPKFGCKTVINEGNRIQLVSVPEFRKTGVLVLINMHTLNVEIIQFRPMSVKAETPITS

Cdc1-A2 = biological target: T3, Cdc1-A2 (Schizosaccharomyces pombe, UniProt P87324 1-462, Gly293Ala)
T3 construct: Cdc1, S. pombe, point mutant; source: yeast two-hybrid fusion, in S. cerevisiae CTY10-5d
T3 sequence (looked up): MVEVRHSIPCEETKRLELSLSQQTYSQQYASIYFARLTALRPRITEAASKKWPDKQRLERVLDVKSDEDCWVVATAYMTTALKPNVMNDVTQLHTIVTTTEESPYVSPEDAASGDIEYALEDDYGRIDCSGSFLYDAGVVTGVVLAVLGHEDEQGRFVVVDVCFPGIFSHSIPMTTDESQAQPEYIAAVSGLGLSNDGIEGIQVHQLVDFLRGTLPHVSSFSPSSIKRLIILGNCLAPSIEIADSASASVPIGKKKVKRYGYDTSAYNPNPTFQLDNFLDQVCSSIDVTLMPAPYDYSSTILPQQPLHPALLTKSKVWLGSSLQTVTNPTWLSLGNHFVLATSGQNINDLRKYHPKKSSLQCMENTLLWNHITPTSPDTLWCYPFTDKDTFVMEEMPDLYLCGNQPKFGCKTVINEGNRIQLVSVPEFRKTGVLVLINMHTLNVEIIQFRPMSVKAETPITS

Cdc1-J9 = biological target: T4, Cdc1-J9 (Schizosaccharomyces pombe, UniProt P87324 1-462, Met-ArgGlyThrProMet-Thr)
T4 construct: Cdc1, S. pombe, with a pentapeptide inserted after residue 174; source: yeast two-hybrid fusion, in S. cerevisiae CTY10-5d
T4 sequence (looked up): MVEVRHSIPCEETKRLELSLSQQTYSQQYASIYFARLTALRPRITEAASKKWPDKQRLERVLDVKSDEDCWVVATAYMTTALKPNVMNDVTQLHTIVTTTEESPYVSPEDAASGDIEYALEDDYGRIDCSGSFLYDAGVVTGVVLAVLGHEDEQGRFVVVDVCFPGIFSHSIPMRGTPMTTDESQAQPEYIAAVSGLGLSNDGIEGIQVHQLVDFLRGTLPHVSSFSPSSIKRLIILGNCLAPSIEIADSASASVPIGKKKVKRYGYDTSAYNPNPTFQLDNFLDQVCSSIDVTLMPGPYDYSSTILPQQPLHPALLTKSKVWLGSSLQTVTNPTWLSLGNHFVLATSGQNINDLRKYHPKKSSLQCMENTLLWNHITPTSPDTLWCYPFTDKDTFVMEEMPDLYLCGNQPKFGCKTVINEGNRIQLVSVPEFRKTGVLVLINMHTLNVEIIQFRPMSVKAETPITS

B1: Pol3 (fission yeast DNA polymerase delta catalytic subunit) (natural protein, Schizosaccharomyces pombe, UniProt P30316 1-1086, looked up)
chain: MTDRSSNEGVVLNKENYPFPRRNGSIHGEITDVKRRRLSERNGYGDKKGSSSKEKTSSFEDELAEYASQLDQDEIKSSKDQQWQRPALPAINPEKDDIYFQQIDSEEFTEGSVPSIRLFGVTDNGNSILVHVVGFLPYFYVKAPVGFRPEMLERFTQDLDATCNGGVIDHCIIEMKENLYGFQGNEKSPFIKIFTTNPRILSRARNVFERGEFNFEELFPVGVGVTTFESNTQYLLRFMIDCDVVGMNWIHLPASKYQFRYQNRVSNCQIEAWINYKDLISLPAEGQWSKMAPLRIMSFDIECAGRKGVFPDPSIDPVIQIASIVTQYGDSTPFVRNVFCVDTCSQIVGTQVYEFQNQAEMLSSWSKFVRDVDPDVLIGYNICNFDIPYLLDRAKSLRIHNFPLLGRIHNFFSVAKETTFSSKAYGTRESKTTSIPGRLQLDMLQVMQRDFKLRSYSLNAVCSQFLGEQKEDVHYSIITDLQNGTADSRRRLAIYCLKDAYLPQRLMDKLMCFVNYTEMARVTGVPFNFLLARGQQIKVISQLFRKALQHDLVVPNIRVNGTDEQYEGATVIEPIKGYYDTPIATLDFSSLYPSIMQAHNLCYTTLLDSNTAELLKLKQDVDYSVTPNGDYFVKPHVRKGLLPIILADLLNARKKAKADLKKETDPFKKAVLDGRQLALKVSANSVYGFTGATNGRLPCLAISSSVTSYGRQMIEKTKDVVEKRYRIENGYSHDAVVIYGDTDSVMVKFGVKTLPEAMKLGEEAANYVSDQFPNPIKLEFEKVYFPYLLISKKRYAGLFWTRTDTYDKMDSKGIETVRRDNCPLVSYVIDTALRKMLIDQDVEGAQLFTKKVISDLLQNKIDMSQLVITKALSKTDYAAKMAHVELAERMRKRDAGSAPAIGDRVAYVIIKGAQGDQFYMRSEDPIYVLENNIPIDAKYYLENQLSKPLLRIFEPILGEKASSLLHGDHTRTISMAAPSVGGIMKFAVKVETCLGCKAPIKKGKTALCENCLNRSAELYQRQVAQVNDLEVRFARLWTQCQRCQGSMHQDVICTSRDCPIFYMRIAEHKKLQQSVDLLKRFDEMSW
notes: DNA polymerase delta catalytic subunit Pol3, S. pombe; prey plasmid named pACT-Pol3 in the results and pGAD2F-Pol3 in the methods; also called Gal4-Pol3; pACT-Pol3; source: yeast two-hybrid fusion, in S. cerevisiae CTY10-5d
Cdc1-J7
  two-hybrid beta-galactosidase activity, % of wild-type Cdc1: < 1%
Cdc1-J3
  two-hybrid beta-galactosidase activity, % of wild-type Cdc1: 54%
Cdc1-A2
  two-hybrid beta-galactosidase activity, % of wild-type Cdc1: < 1%
Cdc1-J9
  two-hybrid beta-galactosidase activity, % of wild-type Cdc1: 91%
